In one data set the target is T1, TtAT (Thermus thermophilus, UniProt Q75WK2).
T1 construct: gene TthHB5018_10190; C-terminal His6 tag, amplified from genomic DNA, plasmid pET20b-ttGlnAT, expressed in E. coli BL21(DE3), Ni-NTA purified
The experiment in a line: PLP to PMP conversion, absorbance decrease at […] nm. The class given is biochemical. The following applies: 50 mM HEPES-NaOH pH 8.0, 0.1 M KCl, 25 °C, 20 μM enzyme, no amine acceptor; racemate used as amine donor.

Substrate in data set [1]: N[C@H](Cc1ccc2ccccc2c1)C(=O)O
The data set is described as follows: purified protein. Conditions: 75 mM phosphate pH 8.5, 1 mM o-dianisidine, 1 U HRP, 25 °C, 11.9 nM enzyme.

Substrate in data set [2]: NC(Cc1ccc(-c2ccccn2)nc1)C(=O)O
The experiment in a line: purified protein. The class given is biochemical, Rhodotorula toruloides. The following applies: 75 mM phosphate pH 8.5, 1 mM o-dianisidine, 1 U HRP, 25 °C, 119 nM enzyme, racemate used, value calibrated accordingly.

Substrate in data set [3]: NC(Cc1cnc2c(O)cccc2c1)C(=O)O
The experiment in a line: purified protein. The class given is biochemical, Rhodotorula toruloides. The following applies: 75 mM phosphate pH 8.5, 1 mM o-dianisidine, 1 U HRP, 25 °C, 119 nM enzyme, racemate used, value calibrated accordingly.

T1 sequence (Q75WK2 entry or part of it): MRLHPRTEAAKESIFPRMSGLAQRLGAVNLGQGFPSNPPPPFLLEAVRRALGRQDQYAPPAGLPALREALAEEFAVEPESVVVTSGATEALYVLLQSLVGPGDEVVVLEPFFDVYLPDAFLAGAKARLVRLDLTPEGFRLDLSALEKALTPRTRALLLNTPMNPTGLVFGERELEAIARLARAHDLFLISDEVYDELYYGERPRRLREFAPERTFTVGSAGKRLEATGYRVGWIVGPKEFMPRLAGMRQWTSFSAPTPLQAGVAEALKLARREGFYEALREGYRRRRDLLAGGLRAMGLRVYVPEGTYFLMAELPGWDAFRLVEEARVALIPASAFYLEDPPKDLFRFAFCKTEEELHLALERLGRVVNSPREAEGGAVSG

As to `NC(Cc1cnc2c(O)cccc2c1)C(=O)O` (racemic) [HQA, L-HQA], the “PLP to PMP conversion, absorbance decrease at 430 nm” value at TtAT is “This result indicates that TtAT recognizes BPA and HQA as substrates”.

As for `NC(Cc1ccc(-c2ccccn2)nc1)C(=O)O` (racemic) [BPA, L-BPA], on TtAT, the “PLP to PMP conversion, absorbance decrease at 430 nm” value is “This result indicates that TtAT recognizes BPA and HQA as substrates”.

B1: RgDAAO (Rhodotorula toruloides) (protein)
chain: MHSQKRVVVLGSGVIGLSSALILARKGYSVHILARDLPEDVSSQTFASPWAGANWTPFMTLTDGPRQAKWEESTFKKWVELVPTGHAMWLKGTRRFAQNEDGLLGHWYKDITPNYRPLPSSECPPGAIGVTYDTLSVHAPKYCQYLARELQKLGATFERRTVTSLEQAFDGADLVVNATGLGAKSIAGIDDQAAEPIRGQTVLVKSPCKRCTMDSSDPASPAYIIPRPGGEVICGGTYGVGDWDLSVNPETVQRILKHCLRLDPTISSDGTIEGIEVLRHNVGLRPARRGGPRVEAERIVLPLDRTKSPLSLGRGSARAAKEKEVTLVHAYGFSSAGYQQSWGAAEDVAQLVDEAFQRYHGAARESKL
notes: synthetic gene, N-terminal His6 tag, expressed in E. coli, Ni-NTA purified
The Km is the concentration of substrate that gives half-maximal velocity. The term kcat denotes the maximal rate divided by the concentration of active sites. By kcat/Km is commonly meant the second-order rate constant that governs catalysis at low substrate concentration. As to B1, in the data set “purified protein [1]”, the Km turned out to be 52 ± 8.7 µM, the kcat was determined as 28.5 s⁻¹ and the kcat/Km amounted to 550000 M⁻¹ s⁻¹. In addition, in the data set “purified protein [2]”, the Km turned out to be 87 ± 10 µM, the turnover number (kcat) was determined as 7.47 ± 0.333 s⁻¹ and the catalytic efficiency (kcat/Km) amounted to 86700 M⁻¹ s⁻¹. In “purified protein [3]”, the Km was 43 ± 9.4 µM, the kcat was 2.067 ± 0.00667 s⁻¹ and the kcat/Km worked out at 48300 M⁻¹ s⁻¹.
